# Test results: PMC6007489 (Nucleic Acids Research, 2018)
# T1: His–Rad1–Rad10 (S. cerevisiae, UniProt P06777 1-1100; P06838 1-210)
# T1 sequence (looked up) 1: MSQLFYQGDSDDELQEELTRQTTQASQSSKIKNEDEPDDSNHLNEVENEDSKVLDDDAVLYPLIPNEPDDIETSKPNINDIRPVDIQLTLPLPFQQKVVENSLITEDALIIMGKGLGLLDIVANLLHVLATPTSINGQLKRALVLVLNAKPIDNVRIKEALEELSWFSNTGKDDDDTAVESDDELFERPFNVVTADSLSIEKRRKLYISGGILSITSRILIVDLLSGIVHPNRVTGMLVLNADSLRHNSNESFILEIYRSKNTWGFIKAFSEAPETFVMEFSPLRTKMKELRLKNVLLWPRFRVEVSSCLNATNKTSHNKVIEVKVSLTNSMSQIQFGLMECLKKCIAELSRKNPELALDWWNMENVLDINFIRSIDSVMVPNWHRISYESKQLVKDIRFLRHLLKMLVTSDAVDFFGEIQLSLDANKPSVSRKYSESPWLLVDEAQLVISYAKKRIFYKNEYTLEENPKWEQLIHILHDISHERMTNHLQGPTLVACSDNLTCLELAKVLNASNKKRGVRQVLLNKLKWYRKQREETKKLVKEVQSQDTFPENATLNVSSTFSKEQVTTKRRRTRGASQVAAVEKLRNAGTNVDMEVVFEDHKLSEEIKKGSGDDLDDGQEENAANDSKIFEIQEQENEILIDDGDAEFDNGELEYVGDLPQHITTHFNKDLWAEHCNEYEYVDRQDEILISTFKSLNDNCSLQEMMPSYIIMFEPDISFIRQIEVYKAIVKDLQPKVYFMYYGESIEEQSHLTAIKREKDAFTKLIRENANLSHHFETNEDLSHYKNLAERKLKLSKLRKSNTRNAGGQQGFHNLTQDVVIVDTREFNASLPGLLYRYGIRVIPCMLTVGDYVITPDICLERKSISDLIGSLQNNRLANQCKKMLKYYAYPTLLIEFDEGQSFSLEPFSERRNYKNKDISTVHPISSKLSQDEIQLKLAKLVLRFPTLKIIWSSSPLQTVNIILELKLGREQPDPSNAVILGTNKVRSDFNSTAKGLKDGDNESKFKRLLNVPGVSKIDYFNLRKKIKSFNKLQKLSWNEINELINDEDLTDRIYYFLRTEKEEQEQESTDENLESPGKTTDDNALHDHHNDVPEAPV
# T1 sequence (looked up) 2: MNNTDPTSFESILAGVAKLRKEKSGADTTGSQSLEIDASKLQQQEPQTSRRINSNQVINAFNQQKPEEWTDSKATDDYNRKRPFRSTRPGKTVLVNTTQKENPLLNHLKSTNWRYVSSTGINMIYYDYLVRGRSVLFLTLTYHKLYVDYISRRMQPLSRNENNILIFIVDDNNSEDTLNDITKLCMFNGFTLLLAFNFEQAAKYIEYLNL
# B1: 6xHis–Saw1 (natural protein, S. cerevisiae, UniProt P39735 1-261, looked up)
# chain: MAPSIATVKIARDMVLPLRIFVNRKQILQTNDKTSNKSNATIFEAPLLSNNSIICLKSPNTRIYLSQQDKKNLCDEIKEDLLLIVYELASPEIISSVLSKIRVGHSTDFQINVLPKLFAGADTDNAVTSHIQSVTRLAKFKYKLHYKHKWELDIFINSIKKIANLRHYLMFQTLTLNGFSLNAGPKTLLARKIEKQPQVPNLLIENGDADALDTPVEEDIKPVIEFMYKPVINLGEIIDVHVLHRPRRHKVRTQSKQPQEE
# How the values were obtained:
# 6xHis–Saw1 = molecular target: B1; assay: co-IP
# Msh2–Msh3 [1] = molecular target: T2, Msh2–Msh3 (S. cerevisiae, UniProt P25847 1-964; P25336 1-1018); assay: far-Western, overlay or dot blot
# His–Rad1–Rad10 = molecular target: T1, His–Rad1–Rad10; assay: co-IP
# Msh2–Msh3 [2] = molecular target: T2, Msh2–Msh3; assay: co-IP
# T2 sequence (P25847 whole entry, chain 1 of 2): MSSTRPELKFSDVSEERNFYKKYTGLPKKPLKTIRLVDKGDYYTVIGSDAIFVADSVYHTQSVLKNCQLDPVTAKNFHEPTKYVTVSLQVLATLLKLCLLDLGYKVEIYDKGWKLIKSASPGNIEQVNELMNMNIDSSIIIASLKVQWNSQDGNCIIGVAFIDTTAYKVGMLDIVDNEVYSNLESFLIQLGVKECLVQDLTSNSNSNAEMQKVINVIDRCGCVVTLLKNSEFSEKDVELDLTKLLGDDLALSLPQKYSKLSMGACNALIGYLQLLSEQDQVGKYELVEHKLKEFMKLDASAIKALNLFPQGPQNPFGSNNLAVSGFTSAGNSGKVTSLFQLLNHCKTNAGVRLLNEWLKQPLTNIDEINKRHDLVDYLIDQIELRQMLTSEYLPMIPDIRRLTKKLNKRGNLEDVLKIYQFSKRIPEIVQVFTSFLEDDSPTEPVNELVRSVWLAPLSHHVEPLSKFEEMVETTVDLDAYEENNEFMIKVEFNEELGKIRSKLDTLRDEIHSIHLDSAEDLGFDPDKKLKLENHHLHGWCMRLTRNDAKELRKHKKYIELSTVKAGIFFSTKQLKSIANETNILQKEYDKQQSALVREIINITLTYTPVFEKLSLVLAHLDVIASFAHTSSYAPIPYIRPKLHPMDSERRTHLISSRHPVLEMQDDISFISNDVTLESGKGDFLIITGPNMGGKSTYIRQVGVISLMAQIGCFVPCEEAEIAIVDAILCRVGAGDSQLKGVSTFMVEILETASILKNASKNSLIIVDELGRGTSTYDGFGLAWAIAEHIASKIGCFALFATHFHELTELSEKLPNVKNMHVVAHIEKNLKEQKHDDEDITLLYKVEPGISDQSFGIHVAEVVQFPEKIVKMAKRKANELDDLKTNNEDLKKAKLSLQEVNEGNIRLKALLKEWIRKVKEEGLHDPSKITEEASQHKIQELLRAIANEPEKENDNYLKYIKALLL
# T2 sequence (P25336 whole entry, chain 2 of 2): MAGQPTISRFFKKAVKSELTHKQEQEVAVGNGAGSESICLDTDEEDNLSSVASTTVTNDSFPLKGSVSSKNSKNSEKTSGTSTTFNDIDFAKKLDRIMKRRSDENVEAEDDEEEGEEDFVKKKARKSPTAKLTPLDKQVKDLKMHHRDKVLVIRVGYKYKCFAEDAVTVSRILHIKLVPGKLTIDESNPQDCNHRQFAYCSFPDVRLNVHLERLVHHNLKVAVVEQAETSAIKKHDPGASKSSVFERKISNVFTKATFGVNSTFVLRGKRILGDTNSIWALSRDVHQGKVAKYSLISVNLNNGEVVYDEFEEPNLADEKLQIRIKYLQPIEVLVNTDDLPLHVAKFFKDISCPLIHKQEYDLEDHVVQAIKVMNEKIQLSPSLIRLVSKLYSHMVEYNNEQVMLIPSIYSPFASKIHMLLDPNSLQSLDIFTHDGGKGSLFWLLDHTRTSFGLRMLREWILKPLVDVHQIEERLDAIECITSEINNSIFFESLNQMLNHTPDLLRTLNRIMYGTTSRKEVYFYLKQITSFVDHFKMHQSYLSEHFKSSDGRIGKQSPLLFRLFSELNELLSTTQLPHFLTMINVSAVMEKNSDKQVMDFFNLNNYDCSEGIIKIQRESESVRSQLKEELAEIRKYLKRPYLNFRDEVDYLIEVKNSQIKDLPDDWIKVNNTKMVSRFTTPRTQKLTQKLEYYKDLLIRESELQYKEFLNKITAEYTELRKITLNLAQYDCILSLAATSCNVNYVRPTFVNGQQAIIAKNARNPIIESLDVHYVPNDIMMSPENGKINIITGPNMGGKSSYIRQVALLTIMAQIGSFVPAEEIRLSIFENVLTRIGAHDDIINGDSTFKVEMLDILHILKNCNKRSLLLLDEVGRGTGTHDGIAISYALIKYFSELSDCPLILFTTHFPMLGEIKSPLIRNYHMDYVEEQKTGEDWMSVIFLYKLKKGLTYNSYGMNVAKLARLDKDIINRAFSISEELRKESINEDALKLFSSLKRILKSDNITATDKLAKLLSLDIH
Binder,fold immunoprecipitated relative to His–Rad1–Rad10 (6xHis–Saw1) [fold],binding result (Msh2–Msh3 [1]),binding result (His–Rad1–Rad10),binding result (Msh2–Msh3 [2])
"His–rad1R218A–Rad10 (complex, S. cerevisiae) chain 1: MSQLFYQGDSDDELQEELTRQTTQASQSSKIKNEDEPDDSNHLNEVENEDSKVLDDDAVLYPLIPNEPDDIETSKPNINDIRPVDIQLTLPLPFQQKVVENSLITEDALIIMGKGLGLLDIVANLLHVLATPTSINGQLKRALVLVLNAKPIDNVRIKEALEELSWFSNTGKDDDDTAVESDDELFERPFNVVTADSLSIEKRRKLYISGGILSITSAILIVDLLSGIVHPNRVTGMLVLNADSLRHNSNESFILEIYRSKNTWGFIKAFSEAPETFVMEFSPLRTKMKELRLKNVLLWPRFRVEVSSCLNATNKTSHNKVIEVKVSLTNSMSQIQFGLMECLKKCIAELSRKNPELALDWWNMENVLDINFIRSIDSVMVPNWHRISYESKQLVKDIRFLRHLLKMLVTSDAVDFFGEIQLSLDANKPSVSRKYSESPWLLVDEAQLVISYAKKRIFYKNEYTLEENPKWEQLIHILHDISHERMTNHLQGPTLVACSDNLTCLELAKVLNASNKKRGVRQVLLNKLKWYRKQREETKKLVKEVQSQDTFPENATLNVSSTFSKEQVTTKRRRTRGASQVAAVEKLRNAGTNVDMEVVFEDHKLSEEIKKGSGDDLDDGQEENAANDSKIFEIQEQENEILIDDGDAEFDNGELEYVGDLPQHITTHFNKDLWAEHCNEYEYVDRQDEILISTFKSLNDNCSLQEMMPSYIIMFEPDISFIRQIEVYKAIVKDLQPKVYFMYYGESIEEQSHLTAIKREKDAFTKLIRENANLSHHFETNEDLSHYKNLAERKLKLSKLRKSNTRNAGGQQGFHNLTQDVVIVDTREFNASLPGLLYRYGIRVIPCMLTVGDYVITPDICLERKSISDLIGSLQNNRLANQCKKMLKYYAYPTLLIEFDEGQSFSLEPFSERRNYKNKDISTVHPISSKLSQDEIQLKLAKLVLRFPTLKIIWSSSPLQTVNIILELKLGREQPDPSNAVILGTNKVRSDFNSTAKGLKDGDNESKFKRLLNVPGVSKIDYFNLRKKIKSFNKLQKLSWNEINELINDEDLTDRIYYFLRTEKEEQEQESTDENLESPGKTTDDNALHDHHNDVPEAPV chain 2: MNNTDPTSFESILAGVAKLRKEKSGADTTGSQSLEIDASKLQQQEPQTSRRINSNQVINAFNQQKPEEWTDSKATDDYNRKRPFRSTRPGKTVLVNTTQKENPLLNHLKSTNWRYVSSTGINMIYYDYLVRGRSVLFLTLTYHKLYVDYISRRMQPLSRNENNILIFIVDDNNSEDTLNDITKLCMFNGFTLLLAFNFEQAAKYIEYLNL",~3,binds,–,–
B1,–,–,binds,binds
